Source: article PMC5657617, “The GYF domain protein PSIG1 dampens the induction of cell death during plant-pathogen interactions” (PLoS Genetics, 2017)

B1: HisMBP-SMG7 (natural protein, Arabidopsis thaliana, UniProt A9QM73 1-1059, looked up)
chain: MMTLQMDKTTASSSWERAKSIYDEIAELANKRQKAGNPPDPNLLQLLREKYEAIILESHTFSEQHNIEIPLWQLHYKRIEYFRLHINRVLASSTSTAAQNVKGPSKAEQIAQLKLQFRTFLSEATGFYHDMILKIRSKYGLPLGSFSEDQQSQNLSDKDGKELAEVQKALKSCHRCLIYLGDLARYKGMYAEGDSRSRQYASASSYYLQAASLWPASGNPHHQLAIVASYSRDEFVTTYRYFRSLAVEYPFPTARDNLIVAFDKNRQSYEKLFVPSKDSSKRLTGKGRGKGADISLKDATLVAGPEKDKVTIANEMLKAFSIRFVHLNGILFTRTSLETFFDVLASTSSSLREVISLGSAKELTLGIDTSDSALFIVRVVTMLIFSVHNSKKETEGQSYAEIVQRVEPARNSLTASFELLGLVIEKCVQLGDPSSSYFLPGVLVFVEWLACCPDIALGSDPDDRQTAVRNSFWNQFVVFFNQVLSLGPTFIDDVEDETCFSNMSLYDERETENRLALWEDYELRGFLPLLPAQTILNFSRKHSFGTEGPKEKKARIKRIFAAGKALTSVIKVDQNHVYFDSKKKKFLVGVKPADDFLDSHSSPPKACNALQDNQVMIDHNSPIMQLDQQIYMGEEDDDDEVIVFKPLVTEKRKEASDQIYVPSGGFRKSDQVTTMGDFKALSGSDVAFHENQILQARGNASIQVPASVGANLLGPLQPSTQSQAMHMQQVQTQVQVPASVGANLLGLLLTSTQSQAMHMQQVQTQAVNPQPAQSLAASRLQPIQSQVAQPLPSRVVHFQQTQAQVSHVSPAHSQSTSFGGGSKWSPEEAASLASSLSGFAQLGNGHVMRNEMQGNHGVSYYPAHSLPVHQSYNGNGMGGMPYSQSRTPEAVFPPKIDPVLSSGVVADGLGVQSSLAKKNPISRAFRHLGPPPGFNSVPAKLQKEPAPGSELSGNNHLPVDDYSWLDGYQAQSSRGVGLNSSLNYATSGKPEHLGSTGNGLNGPANFPFPGKQVPTSQVQADFPYFQNPQKDNFVDKNHQSTQLPEQYQGQSTWSSRHFV
notes: SMG7, Arabidopsis thaliana, At5g19400; open reading frame amplified from Arabidopsis seedling (Col-8) cDNA; residues 1-1059 by the limits of its two halves; also called AtSMG7; HisMBP-tagged SMG7; source: Escherichia coli Rosetta-gami 2 (DE3), purified (Dextrin-Sepharose)
B2: GST-PSIG1^1-606 (domain or fragment)
chain: not shown
notes: PSIG1, Arabidopsis thaliana, At5g42950, residues 1-606, with the GYF domain and without its own PPGF motif; Vector pGEX4T-3; source: Escherichia coli Rosetta-gami 2 (DE3), purified (Glutathione-Sepharose)
B3: HisMBP-SMG7-C (domain or fragment, Arabidopsis thaliana, UniProt A9QM73 549-1059, looked up)
chain: PKEKKARIKRIFAAGKALTSVIKVDQNHVYFDSKKKKFLVGVKPADDFLDSHSSPPKACNALQDNQVMIDHNSPIMQLDQQIYMGEEDDDDEVIVFKPLVTEKRKEASDQIYVPSGGFRKSDQVTTMGDFKALSGSDVAFHENQILQARGNASIQVPASVGANLLGPLQPSTQSQAMHMQQVQTQVQVPASVGANLLGLLLTSTQSQAMHMQQVQTQAVNPQPAQSLAASRLQPIQSQVAQPLPSRVVHFQQTQAQVSHVSPAHSQSTSFGGGSKWSPEEAASLASSLSGFAQLGNGHVMRNEMQGNHGVSYYPAHSLPVHQSYNGNGMGGMPYSQSRTPEAVFPPKIDPVLSSGVVADGLGVQSSLAKKNPISRAFRHLGPPPGFNSVPAKLQKEPAPGSELSGNNHLPVDDYSWLDGYQAQSSRGVGLNSSLNYATSGKPEHLGSTGNGLNGPANFPFPGKQVPTSQVQADFPYFQNPQKDNFVDKNHQSTQLPEQYQGQSTWSSRHFV
notes: also called AtSMG7-C (549-1059); C-terminal half of SMG7; source: Escherichia coli Rosetta-gami 2 (DE3), purified (Dextrin-Sepharose)

How the values were obtained:
[1] = biological target: T1, GST-PSIG1 (PLANT SMY2-TYPE ILE-GYF DOMAIN-CONTAINING PROTEIN 1, full length) (Arabidopsis thaliana, UniProt Q9FMM3 1-1714); test: pull-down; GST-PSIG1 proteins and HisMBP-SMG7 proteins mixed in 50 mM Tris-HCl pH 7.5, 150 mM NaCl, 1 mM DTT, 0.1% Triton X-100; Glutathione-Sepharose beads, 2 h at 4°C; washed three times with 300 mM NaCl buffer; detected by anti-His or anti-GST immunoblot or CBB; details: both partners purified
T1 construct: PSIG1 (EXA1/MUSE11), Arabidopsis thaliana, At5g42950; whole ORF cloned into pGEX4T-3; the text calls it full-length PSIG1; Vector pGEX4T-3, cloned between SalI and NotI sites; also called GST-tagged PSIG1; EXA1; source: Escherichia coli Rosetta-gami 2 (DE3), purified (Glutathione-Sepharose)

[2] = biological target: B1; test: as above; details: both partners purified

T1 sequence (Q9FMM3 whole entry, the tested form may be a part): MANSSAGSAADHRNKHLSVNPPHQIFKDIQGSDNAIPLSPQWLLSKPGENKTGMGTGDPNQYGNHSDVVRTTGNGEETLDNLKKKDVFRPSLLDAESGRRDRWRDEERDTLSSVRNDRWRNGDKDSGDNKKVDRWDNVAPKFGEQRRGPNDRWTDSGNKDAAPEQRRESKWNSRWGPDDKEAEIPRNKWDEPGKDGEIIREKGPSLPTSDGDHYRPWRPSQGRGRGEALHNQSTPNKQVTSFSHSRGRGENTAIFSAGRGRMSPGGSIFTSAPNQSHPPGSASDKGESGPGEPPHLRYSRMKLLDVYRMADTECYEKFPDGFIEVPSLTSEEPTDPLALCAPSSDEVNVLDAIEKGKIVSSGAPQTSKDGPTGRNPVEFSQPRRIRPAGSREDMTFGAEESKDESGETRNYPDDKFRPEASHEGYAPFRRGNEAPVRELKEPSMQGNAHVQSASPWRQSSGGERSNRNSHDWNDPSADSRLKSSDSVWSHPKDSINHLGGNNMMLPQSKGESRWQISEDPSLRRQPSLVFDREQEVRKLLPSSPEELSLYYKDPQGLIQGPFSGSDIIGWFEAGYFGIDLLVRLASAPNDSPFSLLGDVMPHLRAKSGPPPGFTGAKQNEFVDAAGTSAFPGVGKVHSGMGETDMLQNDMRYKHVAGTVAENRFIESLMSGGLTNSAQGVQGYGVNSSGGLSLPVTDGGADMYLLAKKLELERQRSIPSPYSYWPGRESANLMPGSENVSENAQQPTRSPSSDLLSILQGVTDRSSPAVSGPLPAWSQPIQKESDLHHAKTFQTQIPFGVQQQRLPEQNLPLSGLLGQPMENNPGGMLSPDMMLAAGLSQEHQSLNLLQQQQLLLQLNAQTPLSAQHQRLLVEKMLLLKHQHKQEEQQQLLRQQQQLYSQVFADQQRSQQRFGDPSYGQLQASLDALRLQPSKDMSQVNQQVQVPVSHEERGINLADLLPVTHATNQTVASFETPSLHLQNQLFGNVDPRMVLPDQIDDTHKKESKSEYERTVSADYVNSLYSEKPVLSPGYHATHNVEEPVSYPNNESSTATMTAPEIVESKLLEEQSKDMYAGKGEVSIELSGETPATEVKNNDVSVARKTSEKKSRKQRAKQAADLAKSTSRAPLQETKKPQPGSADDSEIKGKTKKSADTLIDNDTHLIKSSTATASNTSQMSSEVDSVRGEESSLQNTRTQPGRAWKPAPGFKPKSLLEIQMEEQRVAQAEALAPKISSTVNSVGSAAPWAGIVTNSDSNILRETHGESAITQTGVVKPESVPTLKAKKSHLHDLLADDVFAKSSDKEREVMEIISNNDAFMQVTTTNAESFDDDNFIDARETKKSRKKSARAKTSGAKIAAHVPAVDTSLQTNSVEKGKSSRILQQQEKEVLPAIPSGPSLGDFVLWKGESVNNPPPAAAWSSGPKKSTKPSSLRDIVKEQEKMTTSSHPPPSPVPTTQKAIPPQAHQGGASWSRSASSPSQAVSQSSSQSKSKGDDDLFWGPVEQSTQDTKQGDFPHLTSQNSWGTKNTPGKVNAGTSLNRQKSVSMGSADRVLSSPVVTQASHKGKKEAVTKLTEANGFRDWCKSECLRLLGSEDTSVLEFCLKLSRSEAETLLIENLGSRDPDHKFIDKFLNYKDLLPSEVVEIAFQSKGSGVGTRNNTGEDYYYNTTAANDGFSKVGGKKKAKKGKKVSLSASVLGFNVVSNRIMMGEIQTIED

binding result [1]	binding result [2]	Binder
binds		B1
	binds	B2
binds		B3
